“Also recorded” adds a separate entry of the source. *1 amine or outer side, *2 acyl side, *3 side chain or, on linkers, in order; H or OH if unused. Where a SMILES comes first, the peptide text is derived from it. Where no end group is shown, it is not given here. [ ]: non-standard residue; d: D form. Suc = O=C(CCC(=O)[*:2])[*:1]; NMeV = CN[C@H](C(=O)O)C(C)C
T1: human NK3R (human NKB receptor) (human, UniProt P29371 1-465)
T1 sequence (looked up): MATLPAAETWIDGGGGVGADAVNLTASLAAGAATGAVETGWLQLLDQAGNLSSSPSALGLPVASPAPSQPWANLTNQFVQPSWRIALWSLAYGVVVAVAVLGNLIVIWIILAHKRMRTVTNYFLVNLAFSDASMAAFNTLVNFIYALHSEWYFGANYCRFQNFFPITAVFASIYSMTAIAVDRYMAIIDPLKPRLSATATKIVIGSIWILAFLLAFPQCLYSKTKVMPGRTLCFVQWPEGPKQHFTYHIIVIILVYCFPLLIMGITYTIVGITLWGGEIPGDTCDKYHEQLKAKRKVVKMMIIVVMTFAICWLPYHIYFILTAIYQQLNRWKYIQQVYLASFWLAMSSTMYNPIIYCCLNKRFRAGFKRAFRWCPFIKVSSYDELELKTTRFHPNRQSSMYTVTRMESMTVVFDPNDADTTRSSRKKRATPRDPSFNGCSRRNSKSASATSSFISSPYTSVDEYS

T2: zebrafish Tac3rb (tac3 receptor b, NKB receptor) (zebrafish)
T2 chain: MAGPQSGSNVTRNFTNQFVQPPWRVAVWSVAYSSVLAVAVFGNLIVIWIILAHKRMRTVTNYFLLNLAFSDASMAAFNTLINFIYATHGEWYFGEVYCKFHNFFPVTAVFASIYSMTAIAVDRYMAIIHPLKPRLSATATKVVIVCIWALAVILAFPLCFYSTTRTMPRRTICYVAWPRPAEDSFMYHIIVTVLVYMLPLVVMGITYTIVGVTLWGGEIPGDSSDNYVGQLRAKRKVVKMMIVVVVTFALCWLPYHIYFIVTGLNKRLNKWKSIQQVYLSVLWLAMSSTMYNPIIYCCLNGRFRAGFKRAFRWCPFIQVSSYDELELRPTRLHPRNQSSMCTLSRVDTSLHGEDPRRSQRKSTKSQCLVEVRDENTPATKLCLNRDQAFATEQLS

T3: zebrafish Tac3ra (tac3 receptor a, NKB receptor) (zebrafish)
T3 chain: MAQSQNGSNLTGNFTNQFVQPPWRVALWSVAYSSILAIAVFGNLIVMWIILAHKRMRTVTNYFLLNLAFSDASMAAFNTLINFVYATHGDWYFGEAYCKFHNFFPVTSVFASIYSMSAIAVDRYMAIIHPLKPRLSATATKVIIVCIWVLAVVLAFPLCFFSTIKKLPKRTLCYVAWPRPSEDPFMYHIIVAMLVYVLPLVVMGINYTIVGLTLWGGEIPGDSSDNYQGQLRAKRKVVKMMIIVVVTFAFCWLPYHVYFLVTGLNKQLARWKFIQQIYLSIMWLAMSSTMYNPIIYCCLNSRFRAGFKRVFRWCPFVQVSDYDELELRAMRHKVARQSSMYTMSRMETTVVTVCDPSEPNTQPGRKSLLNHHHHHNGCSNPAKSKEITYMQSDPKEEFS


Assays:
Mature female carp = experiment: Gonadotropin release from mature carp in vivo (LH by ELISA); conditions: mature female carp just before spawning, injected 20 μg/kg body weight; listed as NKBb analogue
Method: Mature female carp, just before spawning, were injected with NKBa, NKBb and NKF analogues, denoted by SEQ ID NO.44, SEQ ID NO.45 and SEQ ID NO.46, respectively (20 μg/kg body weight). LH levels was measured by specific ELISA, according to Aizen et al. 2012 [33].

zfTac3rb [1] = experiment: Receptor transactivation assay, SRE-Luc reporter (PKC activation), COS-7 cells expressing zfTac3rb; format: cell-based, zebrafish; conditions: Table 7 (native peptides and analogues); PKC activation; mean ± SEM; read-out: EC50 using SRE, zfTac3rb
Method: (§1) In order to study the signaling pathways of the novel zebrafish NKBs, the entire coding regions of zftac3ra (denoted by SEQ ID NO:6) or zftac3rb (denoted by SEQ ID NO:7), or the cDNA clone for human NK3R (obtained from the Missouri S&T cDNA Resource Center, were inserted into pcDNA3.1 (Invitrogen). The luciferase assay was conducted according to Biran et al., 2008 [4] COS-7 cells were grown in DMEM supplemented with 10% FBS, 1% glutamine, 100 U/ml penicillin, and […] streptomycin (Biological Industries) under 5% CO2 until confluent. Cotransfection of either pc-zftac3ra, pc-zftac3rb or pc-Htac3r (at 3 μg/plate), a reporter plasmid (at 2 μg/plate), and pCMV-β-galactosidase (at 1 μg/plate) was carried out with FuGENE 6.0 reagent (Roche). The cells were serum starved for 36 h, stimulated with vehicle or various concentrations of either human (Sigma) or zebrafish NKBs for 6 h, and then harvested and analyzed. Lysates prepared from the harvested cells were assayed for both luciferase activity and β-galactosidase activity, which was used as an internal standard to normalize the luciferase activity directed by the test plasmid. Transfection experiments were performed in triplicate with three independently isolated sets. Protein structure prediction of zebrafish NKBa, NKBb or NKF were performed on I-Tasser servers.
(§2) The response, binding selectivity and signal transduction pathways of the novel tachykinin receptors to their agonists were evaluated by functional expression analysis, using COS-7 cells.
(§3) The NKB analogues (i.e. the NKBa-analog, NKBb-analog and NKF-analog, as denoted by SEQ ID NO. 44-46) were first analyzed in comparison to their native forms in a transactivation assay, using reporter genes for specific signal transduction pathways. To validate the specificity of the serum-responsive element (SRE)-Luc and cAMP-responsive element (CRE)-Luc reporter systems, specific activators for PLC/PKC and AC/PKA signaling pathways were used in control experiments.
(§4) Thus, the ability of the three novel piscine peptides (namely, NKBa, NKBb and NKF, denoted by SEQ ID NO.40, 41 and 42), as well as the ability of the three analogous agonistic peptides, namely, NKBa-analog, NKBb-analog and NKF-analog, to differentially activate the different tac3 receptors, using SRE as a reporter gene that follows PKC activation and CRE as a reporter gene for the PKA pathway, was tested. Human NK3R (human NKB receptor) and human NKB served as controls.

zfTac3rb [2] = experiment: Receptor transactivation assay, CRE-Luc reporter (PKA activation), COS-7 cells expressing zfTac3rb; format: cell-based, zebrafish; conditions: Table 6 (native peptides and analogues), PKA activation, mean ± SEM, read-out: EC50 using CRE-Luc, zfTac3rb
Method: as §1, §2, §3, §4

zfTac3ra [3] = experiment: Receptor transactivation assay, CRE-Luc reporter (PKA activation), COS-7 cells expressing zfTac3ra; format: cell-based, zebrafish; conditions: Table 6 (native peptides and analogues), PKA activation, mean ± SEM, read-out: EC50 using CRE-Luc, zfTac3ra
Method: as §1, §2, §3, §4

zfTac3ra [4] = experiment: Receptor transactivation assay, SRE-Luc reporter (PKC activation), COS-7 cells expressing zfTac3ra; format: cell-based, zebrafish; conditions: Table 7 (native peptides and analogues); PKC activation; mean ± SEM; read-out: EC50 using SRE, zfTac3ra
Method: as §1, §2, §3, §4

[5] = target: T1, human NK3R (human NKB receptor); experiment: cell-based or functional assay
[6] = target: T2, zebrafish Tac3rb (tac3 receptor b, NKB …); experiment: cell-based or functional assay
[7] = target: T3, zebrafish Tac3ra (tac3 receptor a, NKB …); experiment: cell-based or functional assay
[8] = target: T1, human NK3R (human NKB receptor); experiment: cell-based or functional assay; remark: listed apart in the source
[9] = target: T2, zebrafish Tac3rb (tac3 receptor b, NKB …); experiment: cell-based or functional assay
[10] = target: T3, zebrafish Tac3ra (tac3 receptor a, NKB …); experiment: cell-based or functional assay
[11] = target: T1, human NK3R (human NKB receptor); experiment: cell-based or functional assay; remark: listed apart in the source
[12] = target: T2, zebrafish Tac3rb (tac3 receptor b, NKB …); experiment: cell-based or functional assay
[13] = target: T3, zebrafish Tac3ra (tac3 receptor a, NKB …); experiment: cell-based or functional assay

EC50 (zfTac3rb [1])	EC50 (zfTac3rb [2]; listed as NKBb-analog)	EC50 (zfTac3rb [2])	EC50 (zfTac3ra [3]; listed as NKBb-analog)	EC50 (zfTac3ra [3])	EC50 (zfTac3ra [4])	EC50, CRE-Luc reporter (PKA activation), transfected COS-7 cells [5]	EC50, SRE-Luc reporter (PKC activation), transfected COS-7 cells [5]	EC50, CRE-Luc reporter (PKA activation), transfected COS-7 cells [6]	EC50, SRE-Luc reporter (PKC activation), transfected COS-7 cells [6]	EC50, CRE-Luc reporter (PKA activation), transfected COS-7 cells [7]	EC50, SRE-Luc reporter (PKC activation), transfected COS-7 cells [7]	EC50, CRE-Luc to follow PKA activation, transfected COS-7 cells [8]	EC50, CRE-Luc to follow PKA activation, transfected COS-7 cells [9]	EC50, CRE-Luc to follow PKA activation, transfected COS-7 cells [10]	EC50, SRE reporter gene that follows PKC activation, transfected COS-7 cells [11]	EC50, SRE reporter gene that follows PKC activation, transfected COS-7 cells [12]	EC50, SRE reporter gene that follows PKC activation, transfected COS-7 cells [13]	Molecule	LH level (Mature female carp)
0.23 nM	2.2 nM	2.18 ± 1.34 nM	1.7 nM	1.68 ± 1.21 nM	0.06 nM	–	–	–	–	–	–	–	–	–	–	–	–	CSCC[C@H](NC(=O)[C@H](CC(C)C)NC(=O)CNC(=O)[C@H](C(C)C)N(C)C(=O)[C@H](Cc1ccccc1)NC(=O)[C@H](CC(=O)O)NC(=O)CCC(=O)O)C(N)=O [zfNKBb-analog, Succ-Asp-Phe-N(Me)Val-Gly-Leu-Met-NH2] (Suc-DF[NMeV]GLM-NH2)	significant elevation; also recorded: increased the level of LH significantly
–	–	–	–	–	–	4.36 nM	0.52 nM	1.8 nM	0.36 nM	4.94 nM	0.54 nM	4.36 nM	1.8 nM	4.94 nM	0.52 nM	0.37 nM	0.55 nM	YNDIDYDSFVGLM-NH2 [Zebrafish Tac3f peptide, neurokinin F (YNDIDYDSFVGLM-NH2)]	–

— patent US20150072933A1, “NOVEL SEQUENCES FOR THE CONTROL OF REPRODUCTION IN FISH” (Yissum Research Development Company of the Hebrew …, priority 2011, published 2015)
